B1: NEK8 (parent)
chain: VVGTPCYISPELCEGKPYNQKSDI

Variants of: B1
Assay: protein stability index of a GFP-peptide fusion (GPS, HEK-293T) (PSI 1-6); higher = more stable
Settings: c terminus: a fixed tail appended
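Further: lentivirally expressed fusions sorted by FACS into six bins by GFP to DsRed ratio, PSI derived from sequencing read proportions per bin multiplied by bin number.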

| Variant | protein stability index |
| --- | --- |
| VVGTPCYISPELCEGKPGNQKSDI [Y18G] | 3.45 |
| VVGTPCYISPELCYGKPYNQKSDI [E14Y] | 2.25 |
| VVGTPCYISPELCMGKPYNQKSDI [E14M] | 2.28 |
| VVGTPCYISPELCTGKPYNQKSDI [E14T] | 2.73 |
| VVGTPCYISPELCRGKPYNQKSDI [E14R] | 2.51 |
| VVGTPCYISPELCPGKPYNQKSDI [E14P] | 2.79 |
| VVGTPCYISPELCIGKPYNQKSDI [E14I] | 2.2 |
| VVGTPCYISPELCSGKPYNQKSDI [E14S] | 2.38 |
| VVGTPCYISPELCKGKPYNQKSDI [E14K] | 2.6 |
| VVGTPCYISPELCCGKPYNQKSDI [E14C] | 2.73 |
| VVGTPCYISPELCWGKPYNQKSDI [E14W] | 2.5 |
| VVGTPCYISPELCVGKPYNQKSDI [E14V] | 2.23 |
| VVGTPCYISPELCNGKPYNQKSDI [E14N] | 2.52 |
| VVGTPCYISPELCGGKPYNQKSDI [E14G] | 2.52 |
| VVGTPCYISPELCFGKPYNQKSDI [E14F] | 1.82 |
| VVGTPCYISPELCHGKPYNQKSDI [E14H] | 2.23 |
| VVGTPCYISPELCQGKPYNQKSDI [E14Q] | 2.37 |
| VVGTPCYISPELCAGKPYNQKSDI [E14A] | 2.49 |
| VVGTPCYISPELCDGKPYNQKSDI [E14D] | 2.45 |
| VVGTPCYISPELCLGKPYNQKSDI [E14L] | 2.67 |
| VVGTPCYISPELCEGKPYNEKSDI [Q20E] | 2.63 |
| VVGTPCYISPELCEGKPYNAKSDI [Q20A] | 2.44 |
| VVGTPCYISPELCEGKPYNCKSDI [Q20C] | 2.57 |
| VVGTPCYISPELCEGKPYNFKSDI [Q20F] | 1.85 |

| Variant | protein stability index |
| --- | --- |
| VVGTPCYISPELCEGKPYNDKSDI [Q20D] | 2.54 |
| VVGTPCYISPESCEGKPYNQKSDI [L12S] | 3.15 |
| VVGTPCYISPEGCEGKPYNQKSDI [L12G] | 4.29 |
| VVGTPCYISPEWCEGKPYNQKSDI [L12W] | 1.83 |
| VVGTPCYISPEPCEGKPYNQKSDI [L12P] | 3.6 |
| VVGTPCYISPEVCEGKPYNQKSDI [L12V] | 2.83 |
| VVGTPCYISPENCEGKPYNQKSDI [L12N] | 3.62 |
| VVGTPCYISPEECEGKPYNQKSDI [L12E] | 4.11 |
| VVGTPCYISPEFCEGKPYNQKSDI [L12F] | 2.15 |
| VVGTPCYISPERCEGKPYNQKSDI [L12R] | 3.35 |
| VVGTPCYISPEKCEGKPYNQKSDI [L12K] | 3.69 |
| VVGTPCYISPEACEGKPYNQKSDI [L12A] | 3.1 |
| VVGTPCYISPECCEGKPYNQKSDI [L12C] | 3.29 |
| VVGTPCYISPETCEGKPYNQKSDI [L12T] | 3.15 |
| VVGTPCYISPEQCEGKPYNQKSDI [L12Q] | 2.71 |
| VVGTPCYISPEYCEGKPYNQKSDI [L12Y] | 2.27 |
| VVGTPCYISPEMCEGKPYNQKSDI [L12M] | 2.76 |
| VVGTPCYISPEDCEGKPYNQKSDI [L12D] | 3.4 |
| VVGTPCYISPEHCEGKPYNQKSDI [L12H] | 3.59 |
| VVGTPCYISPEICEGKPYNQKSDI [L12I] | 2.93 |
| VVGTPCYISPHLCEGKPYNQKSDI [E11H] | 2.03 |
| VVGTPCYISPKLCEGKPYNQKSDI [E11K] | 2.74 |
| VVGTPCYISPDLCEGKPYNQKSDI [E11D] | 3.16 |
| VVGTPCYISPILCEGKPYNQKSDI [E11I] | 2.52 |

| Variant | protein stability index |
| --- | --- |
| VVGTPCYISPQLCEGKPYNQKSDI [E11Q] | 2.31 |
| VVGTPCYISPRLCEGKPYNQKSDI [E11R] | 2.49 |
| VVGTPCYISPALCEGKPYNQKSDI [E11A] | 2.68 |
| VVGTPCYISPWLCEGKPYNQKSDI [E11W] | 1.08 |
| VVGTPCYISPYLCEGKPYNQKSDI [E11Y] | 2.05 |
| VVGTPCYISPNLCEGKPYNQKSDI [E11N] | 2.66 |
| VVGTPCYISPTLCEGKPYNQKSDI [E11T] | 2.48 |
| VVGTPCYISPSLCEGKPYNQKSDI [E11S] | 2.7 |
| VVGTPCYISPFLCEGKPYNQKSDI [E11F] | 1.5 |
| VVGTPCYISPLLCEGKPYNQKSDI [E11L] | 1.8 |
| VVGTPCYISPCLCEGKPYNQKSDI [E11C] | 1.68 |
| VVGTPCYISPPLCEGKPYNQKSDI [E11P] | 1.76 |
| VVGTPCYISPVLCEGKPYNQKSDI [E11V] | 1.59 |
| VVGTPCYISPGLCEGKPYNQKSDI [E11G] | 2.54 |
| VVGTPCYISPMLCEGKPYNQKSDI [E11M] | 2.32 |
| VVGTPCYISPELCEGKPYKQKSDI [N19K] | 2.98 |
| VVGTPCYISPELCEGKPYMQKSDI [N19M] | 2.88 |
| VVGTPCYISPELCEGKPYYQKSDI [N19Y] | 2.39 |
| VVGTPCYISPELCEGKPYLQKSDI [N19L] | 2.21 |
| VVGTPCYISPELCEGKPYTQKSDI [N19T] | 2.98 |
| VVGTPCYISPELCEGKPYEQKSDI [N19E] | 2.94 |
| VVGTPCYISPELCEGKPYCQKSDI [N19C] | 2.46 |
| VVGTPCYISPELCEGKPYQQKSDI [N19Q] | 3.19 |
| VVGTPCYISPELCEGKPYVQKSDI [N19V] | 2.73 |

| Variant | protein stability index |
| --- | --- |
| VVGTPCYISPELCEGKPYRQKSDI [N19R] | 2.45 |
| VVGTPCYISPELCEGKPYDQKSDI [N19D] | 3.22 |
| VVGTPCYISPELCEGKPYHQKSDI [N19H] | 2.48 |
| VVGTPCYISPELCEGKPYAQKSDI [N19A] | 2.79 |
| VVGTPCYISPELCEGKPYFQKSDI [N19F] | 2.14 |
| VVGTPCYISPELCEGKPYWQKSDI [N19W] | 2.02 |
| VVGTPCYISPELCEGKPYSQKSDI [N19S] | 3.1 |
| VVGTPCYISPELCEGKPYGQKSDI [N19G] | 2.48 |
| VVGTPCYISPELCEGKPYIQKSDI [N19I] | 2.38 |
| VVGTPCYISPELCEGKPYPQKSDI [N19P] | 2.82 |
| VVGTPCYISKELCEGKPYNQKSDI [P10K] | 3.56 |
| VVGTPCYISQELCEGKPYNQKSDI [P10Q] | 3.49 |
| VVGTPCYISIELCEGKPYNQKSDI [P10I] | 1.49 |
| VVGTPCYISWELCEGKPYNQKSDI [P10W] | 1.9 |
| VVGTPCYISVELCEGKPYNQKSDI [P10V] | 1.75 |
| VVGTPCYISSELCEGKPYNQKSDI [P10S] | 3.39 |
| VVGTPCYISYELCEGKPYNQKSDI [P10Y] | 1.91 |
| VVGTPCYISLELCEGKPYNQKSDI [P10L] | 2.01 |
| VVGTPCYISRELCEGKPYNQKSDI [P10R] | 2.98 |
| VVGTPCYISNELCEGKPYNQKSDI [P10N] | 3.44 |
| VVGTPCYISMELCEGKPYNQKSDI [P10M] | 2.24 |
| VVGTPCYISTELCEGKPYNQKSDI [P10T] | 2.74 |

— the supplement of paper PMC10567573
